Patent US20120107330A1 (published 2012)
Read-outs that look alike come from different tables or passages of the source. Ends that are not written are not given here.

Tests used:
[1] = target: human TNFR1 (recombinant, R&D Systems cat no. 636-R1/CF, biotinylated) (human) (UniProt P19438); test: BIAcore, human TNFR1 on SA chip, second injection after DOM1h-574-16 as competitor
[2] = target: T1, peptide D2 (domain-1 peptide of human TNFR1) (human, cysteine pairing not given here; also: biotinylated, position not given here); test: BIAcore, biotinylated peptide D2 on SA chip
T1 construct: also called peptide 1
T1 peptide: SGSGNSICCTKCHKGTYLY

[3] = target: T2, peptide E5 (overlapping domain-3 peptide of human TNFR1) (human, also: biotinylated, position not given here); test: BIAcore, biotinylated peptide E5 on SA chip
T2 construct: also called peptide 3
T2 peptide: SGSGNQYRHYWSENLFQCF

[4] = target: T3, peptide A3 (negative control fragment of human TNFR1) (human, cysteine pairing not given here; also: biotinylated, position not given here); test: BIAcore, biotinylated peptide A3 on SA chip
T3 construct: also called control peptide
T3 peptide: SGSGNDCPGPGQDTDCREC

[5] = target: T4, peptide D5 (domain-3 peptide of human TNFR1) (human, also: biotinylated, position not given here); test: BIAcore, biotinylated peptide D5 on SA chip
T4 construct: also called peptide 2
T4 peptide: SGSGCRKNQYRHYWSENLF

[6] = target: T5, human TNFR1 (recombinant, R&D Systems cat no. 636-R1/CF, biotinylated) (human, UniProt P19438 30-211, limits assumed, biotinylated with EZ-Link NHS-LC-LC-biotin); test: BIAcore, human TNFR1 on SA chip
T5 construct: it is not tied to the BIAcore reagent; also called p55; hTNFR1
T5 sequence (looked up): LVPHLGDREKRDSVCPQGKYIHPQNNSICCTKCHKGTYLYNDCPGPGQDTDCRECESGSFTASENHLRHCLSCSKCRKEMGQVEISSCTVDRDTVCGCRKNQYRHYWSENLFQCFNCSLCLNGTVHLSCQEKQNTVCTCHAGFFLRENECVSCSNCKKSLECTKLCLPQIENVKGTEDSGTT
From the text: (§1) A significant advantage for an anti-TNFR1 dAb would be cross-reactivity between different species. Given the limited conservation of the sequence of the extracellular domain of TNFR1 between mouse, dog, Cynomologus monkey and human (FIG. 6), it would be exceptional for any antibody or single variable domain to recognize TNFR1 of these different species at similar affinities. […] For each of these experiments the TNFR1 was biotinylated using EZ-Link NHS-LC-LC-biotin (Pierce cat no. 21343), according to the manufacturer's instructions, followed by binding of the biotinylated TNFR1 to a Streptavidin-coated BIAcore chip. […] Examples for binding to the different species are shown in FIGS. 7 and 8, with a summary of the results in Table 2.

[7] = target: dog TNFR1 (recombinant, R&D Systems cat no. 4017-TR-025/CF, biotinylated) (dog); test: BIAcore, dog TNFR1 on SA chip
[8] = target: T6, mouse TNFR1 (recombinant, R&D Systems cat no. 425-R1-050/CF, biotinylated) (mouse, UniProt P25118 22-212, biotinylated with EZ-Link NHS-LC-LC-biotin); test: BIAcore, mouse TNFR1 on SA chip
T6 construct: also called murine TNFR1; biotinylated mouse TNFR1
T6 sequence (looked up): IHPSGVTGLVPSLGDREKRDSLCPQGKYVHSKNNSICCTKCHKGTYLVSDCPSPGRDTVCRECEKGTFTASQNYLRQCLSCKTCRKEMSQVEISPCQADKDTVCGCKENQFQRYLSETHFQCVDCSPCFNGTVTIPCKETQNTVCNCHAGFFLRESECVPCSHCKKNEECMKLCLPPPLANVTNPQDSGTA
From the text: as §1

[9] = target: T7, human TNFR1 on MRC-5 cells (human, UniProt P19438 30-455); test: cell-based or functional assay
T7 sequence (looked up): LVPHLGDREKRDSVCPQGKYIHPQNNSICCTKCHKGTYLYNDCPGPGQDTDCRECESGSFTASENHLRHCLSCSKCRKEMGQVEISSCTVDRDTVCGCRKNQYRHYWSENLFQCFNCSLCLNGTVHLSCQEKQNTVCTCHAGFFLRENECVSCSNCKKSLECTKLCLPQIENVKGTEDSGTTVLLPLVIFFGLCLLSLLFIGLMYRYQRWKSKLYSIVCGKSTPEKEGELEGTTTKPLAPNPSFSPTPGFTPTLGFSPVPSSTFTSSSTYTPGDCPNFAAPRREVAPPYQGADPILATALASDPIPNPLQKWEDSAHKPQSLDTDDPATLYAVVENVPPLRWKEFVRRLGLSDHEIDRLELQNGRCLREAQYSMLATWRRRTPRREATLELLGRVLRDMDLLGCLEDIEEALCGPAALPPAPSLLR

[10] = target: T4, peptide D5 (domain-3 peptide of human …); test: BIAcore, biotinylated peptide D5 on SA chip, dAb at 2.5 µM
[11] = target: T3, peptide A3 (negative control fragment …); test: BIAcore, biotinylated peptide A3 on SA chip
[12] = target: T5, human TNFR1 (recombinant, R&D Systems …); test: BIAcore, human TNFR1
[13] = target: T2, peptide E5 (overlapping domain-3 …); test: BIAcore, biotinylated peptide E5 on SA chip, dAb at 2.5 µM
[14] = target: T1, peptide D2 (domain-1 peptide of human …); test: BIAcore, biotinylated peptide D2 on SA chip, dAb at 2.5 µM
[15] = target: T5, human TNFR1 (recombinant, R&D Systems …); test: BIAcore, biotinylated human TNFR1 on SA chip, purified dAb injected (concentration not given)
[16] = target: T5, human TNFR1 (recombinant, R&D Systems …); test: BIAcore, human TNFR1 on SA chip; remark: listed apart in the source
[17] = target: T4, peptide D5 (domain-3 peptide of human …); test: BIAcore, biotinylated peptide D5 on SA chip
[18] = target: T3, peptide A3 (negative control fragment …); test: BIAcore, biotinylated peptide A3 on SA chip
[19] = target: T1, peptide D2 (domain-1 peptide of human …); test: BIAcore, biotinylated peptide D2 on SA chip
[20] = target: T2, peptide E5 (overlapping domain-3 …); test: BIAcore, biotinylated peptide E5 on SA chip
[21] = target: T8, TNFR1-Fc fusion (R&D Systems Cat #372-RI) (human, UniProt P19438 30-211); test: receptor binding assay: TNFR1-Fc on anti-IgG beads, dAb titrated, blocked ligand TNFα detected with biotinylated anti-TNFα and fluorescent streptavidin (FMAT)
T8 construct: range 30-211; also called TNFR1-containing beads; not shown: Human IgG1 (Pro100-Lys330)
Procedure: The potency of the dAbs was determined against human TNFR1 in a receptor binding assay. This assay measures the binding of TNF-alpha to TNFR1 and the ability of soluble dAb to block this interaction. The TNFR1-Fc fusion (R&D Systems, Cat#372-RI.) is captured on a bead pre-coated with goat anti-human IgG (Spherotech, Cat#HUP-60-S). The receptor coated beads are incubated with TNF-alpha (10 ng/ml, Peprotech Cat#300-01A), dAb, biotin conjugated anti-TNF-alpha (Hycult Biotechnology Cat#HM2027.) and streptavidin Alexa Fluor 647 (Molecular Probes, (Invitrogen) Cat#32357) in a black sided clear bottomed 384 well plate. After 6 hours the plate is read on the ABI 8200 Cellular Detection system and bead associated fluorescence determined. If the dAb blocks TNF-alpha binding to TNFR1 the fluorescent intensity will be reduced.

[22] = target: T8, TNFR1-Fc fusion (R&D Systems Cat …); test: receptor binding assay: TNFR1-Fc on beads incubated with the dAb, then with TNFα (blocked ligand); % inhibition of TNFα binding to TNFR1

Question: How did the decrease of binding (RUs) in the presence of the competitor [1] turn out when “mAb Clone 4.12 (Invitrogen, cat. no. Zymed 33-0100) (antibody)” was run?
Answer: Its decrease of binding (RUs) in the presence of the competitor is 20%.

B1: DOM1m-21-23 (other)
VH: EVQLLESGGGLVQPGGSLRLSCAASGFTFNRYSMGWLRQAPGKGLEWVSRIDSYGRGTYYEDPVKGRFSISRDNSKNTLYLQMNSLRAEDTAVYYCAKISQFGSNAFDYWGQGTQVTVSS
notes: VH dAb; also called DOM1m-12-23 [sic]
Question: Does B1 bind [2]?
Answer: Result: no binding (tested: 2.5 µM)

Question: Does B1 bind [3]?
Answer: Result: no binding (tested: 2.5 µM)

Question: Does B1 bind [4]?
Answer: Result: no binding (tested: 2.5 µM)

Question: Does B1 bind [5]?
Answer: Result: no binding (tested: 2.5 µM)

B2: DOM1h-574-16 (other)
VH: EVQLLESGGGLVQPGGSLRLSCAASGFTFVKYSMGWVRQAPGKGPEWVSQISNTGDRTYYADSVKGRFTISRDNSKNTLYLQMNSLRAEDTAVYYCAIYTGRWEPFDYWGQGTLVTVSS
notes: VH dAb; also called DOM1h-57-16 [sic]; the DOM0100 dAb
Question: Which results are given for B2?
Answer: Kd [6]: 1 nM; Kd [7]: 20 nM; Kd [8]: 20 nM; MRC-5 ND50 (TNFα-mediated IL-8 release) [9]: 8 nM; binding result [10]: binds; binding result [11]: no binding (tested: 2.5 µM); Kd [12]: 1 nM; binding result [13]: binds; binding result [14]: binds

B3: DOM1h-509 (other)
VH: EVQLLESGGGLVQPGGSLRLSCAASGFTFSQYRMHWVRQAPGKSLEWVSSIDTRGSSTYYADPVKGRFTISRDNSKNTLYLQMNSLRAEDTAVYYCAKAVTMFSPFFDYWGQGTLVTVSS
notes: VH domain antibody (dAb)
Question: Does B3 bind [15]?
Answer: Result: binds

B4: DOM1h-543 (other)
VH: EVQLLESGGGLVQPGGSLRLSCAASGFTFMRYRMHWVRQAPGKGLEWVSSIDSNGSSTYYADSVKGRFTISRDNSKNTLYLQMNSLRAEDTAVYYCAKDRTERSPVFDYWGQGTLVTVSS
notes: VH dAb
Question: Does B4 bind [16]?
Answer: Result: binds

B5: DOM1h-131-511 (other)
VH: EVQLLESGGGLVQPGGSLRLSCAASGFTFAHETMVWVRQAPGKGLEWVSHIPPVGQDPFYADSVKGRFTISRDNSKNTLYLQMNSLRAEDTAVYYCALLPKRGPWFDYWGQGTLVTVSS
notes: also called control dAb
Question: Does B5 bind [17]?
Answer: Result: no binding (tested: 2.5 µM)

Question: Does B5 bind [18]?
Answer: Result: no binding (tested: 2.5 µM)

Question: Does B5 bind [19]?
Answer: Result: no binding (tested: 2.5 µM)

Question: Does B5 bind [20]?
Answer: Result: no binding (tested: 2.5 µM)

Question: What about the “IC50 (read off the curve)” value [21] of the same molecule?
Answer: The value was ~0.1 nM.

Question: And the “IC50 (read off the curve)” value [22]?
Answer: Its value is ~0.1 nM.

B6: DOM1h-549 (other)
VH: EVQLLESGGGLVQPGGSLRLSCAASGFTFVDYEMHWVRQAPGKGLEWVSSISESGTTTYYADSVKGRFTISRDNSKNTLYLQMNSLRAEDTAVYYCAKRRFSASTFDYWGQGTLVTVSS
notes: VH dAb
Question: Does B6 bind [15]?
Answer: Result: binds
